B1: Beta-adrenergic receptor kinase 1 (Homo sapiens), P25098 (parent)
chain: MADLEAVLADVSYLMAMEKSKATPAARASKKILLPEPSIRSVMQKYLEDRGEVTFEKIFSQKLGYLLFRDFCLNHLEEARPLVEFYEEIKKYEKLETEEERVARSREIFDSYIMKELLACSHPFSKSATEHVQGHLGKKQVPPDLFQPYIEEICQNLRGDVFQKFIESDKFTRFCQWKNVELNIHLTMNDFSVHRIIGRGGFGEVYGCRKADTGKMYAMKCLDKKRIKMKQGETLALNERIMLSLVSTGDCPFIVCMSYAFHTPDKLSFILDLMNGGDLHYHLSQHGVFSEADMRFYAAEIILGLEHMHNRFVVYRDLKPANILLDEHGHVRISDLGLACDFSKKKPHASVGTHGYMAPEVLQKGVAYDSSADWFSLGCMLFKLLRGHSPFRQHKTKDKHEIDRMTLTMAVELPDSFSPELRSLLEGLLQRDVNRRLGCLGRGAQEVKESPFFRSLDWQMVFLQKYPPPLIPPRGEVNAADAFDIGSFDEEDTKGIKLLDSDQELYRNFPLTISERWQQEVAETVFDTINAETDRLEARKKAKNKQLGHEEDYALGKDCIMHGYMSKMGNPFLTQWQRRYFYLFPNRLEWRGEGEAPQSLLTMEEIQSVEETQIKERKCLLLKIRGGKQFILQCDSDPELVQWKKELRDAYREAQQLVQRVPKMKNKPRSPVVELSKVPLVQRGSANGL
partner: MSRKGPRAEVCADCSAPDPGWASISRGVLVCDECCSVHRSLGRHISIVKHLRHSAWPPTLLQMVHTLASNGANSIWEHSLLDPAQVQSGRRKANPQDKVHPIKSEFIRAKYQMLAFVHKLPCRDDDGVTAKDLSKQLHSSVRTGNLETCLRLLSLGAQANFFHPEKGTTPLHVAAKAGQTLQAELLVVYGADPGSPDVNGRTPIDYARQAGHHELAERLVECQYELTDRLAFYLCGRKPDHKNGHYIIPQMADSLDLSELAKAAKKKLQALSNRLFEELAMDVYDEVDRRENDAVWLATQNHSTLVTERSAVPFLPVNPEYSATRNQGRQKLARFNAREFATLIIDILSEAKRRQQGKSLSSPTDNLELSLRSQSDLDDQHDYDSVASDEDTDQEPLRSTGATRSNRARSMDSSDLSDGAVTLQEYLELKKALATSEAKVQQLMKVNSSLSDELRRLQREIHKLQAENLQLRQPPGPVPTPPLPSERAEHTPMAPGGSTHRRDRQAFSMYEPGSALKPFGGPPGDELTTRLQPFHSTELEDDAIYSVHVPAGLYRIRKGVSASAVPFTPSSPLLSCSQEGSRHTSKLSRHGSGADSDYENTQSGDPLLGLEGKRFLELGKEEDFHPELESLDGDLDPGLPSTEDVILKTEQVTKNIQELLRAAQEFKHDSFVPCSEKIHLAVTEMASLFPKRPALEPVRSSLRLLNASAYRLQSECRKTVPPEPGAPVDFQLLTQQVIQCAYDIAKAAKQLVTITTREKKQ

Variants of: B1
Settings: with git1_human GIT1, Q9Y2X7

| effect of a mutation on the interaction | Variant |
| --- | --- |
| increasing interaction | S670A |

Variants of: B1
Settings: with git1_human GIT1, Q9Y2X7
Remark: another data set of the same source

| effect of a mutation on the interaction | Variant |
| --- | --- |
| disrupting interaction | S670D |

Variants of: B1
Settings: with git1_human GIT1, Q9Y2X7
Remark: another data set of the same source

| effect of a mutation on the interaction | Variant |
| --- | --- |
| disrupting interaction | Y13F;Y86F;Y92F |

Variants of: B1
Settings: with git1_human GIT1, Q9Y2X7
Remark: another data set of the same source

| effect of a mutation on the interaction | Variant |
| --- | --- |
| increasing interaction | Y86D;Y92D |

From IntAct's records for PubMed 18369319
